Here are results for one molecule from patent CN101696242A.

The target of the experiment is CVS-11. In words: cell-based or functional assay.

B1: 人源抗狂犬病毒中和抗体Fab (Fab, V domains shown)
VH: ELLESGGGLVQPGGSLRLSCAASGFTFSSYAMSWVRQAPGKGLEWVSSINRSGDITTYADSVKGRFTISRDNSKNTLYLQMNSLRAEDTAVYYCAKKTRRFDYWGQGTLVTVSS
VL: ESALTQPRSVSGSPGQSVTISCTGTSSDIGGYNFVSWYQQHPGKAPKLMIYDATKRPSGVPDRFSGSKSGNTASLTISGLQAEDEADYYCCSYAGDYTPGVVFGGGTKLTVLG
With B1, the 中和效价 (狂犬病荧光抗体病毒中和试验 FAVN, BHK-21细胞) was 10.3 IU/mL.
